Assay results reported in paper PMC10384113, “Structural and Functional Characterization of Drosophila melanogaster α-Amylase” (Molecules, 2023).
Blank lines part the entries; values can stand above or below the compound they belong to.

Legend:
[1] = molecular target: Drosophila melanogaster α-amylase (Drosophila melanogaster) (UniProt P08144)
[2] = molecular target: T1, DMA (Drosophila melanogaster α-amylase) (Drosophila melanogaster, UniProt P08144); test: residual activity on starch after inhibitor preincubation; format: biochemical; conditions: native DMA, Pichia-produced; inhibitor 1-50 µM, 20 mM HEPES pH 7.5, 20 mM NaCl, 1 mM CaCl2, 25 °C
T1 construct: gene Amy-p; mature enzyme of 476 residues in crystal; recombinant, amy-p in pET22b, E. coli BL21 (kinetics, crystals); glycogen-purified; no tag mentioned
T1 sequence (P08144 with tags, fused parts or gaps): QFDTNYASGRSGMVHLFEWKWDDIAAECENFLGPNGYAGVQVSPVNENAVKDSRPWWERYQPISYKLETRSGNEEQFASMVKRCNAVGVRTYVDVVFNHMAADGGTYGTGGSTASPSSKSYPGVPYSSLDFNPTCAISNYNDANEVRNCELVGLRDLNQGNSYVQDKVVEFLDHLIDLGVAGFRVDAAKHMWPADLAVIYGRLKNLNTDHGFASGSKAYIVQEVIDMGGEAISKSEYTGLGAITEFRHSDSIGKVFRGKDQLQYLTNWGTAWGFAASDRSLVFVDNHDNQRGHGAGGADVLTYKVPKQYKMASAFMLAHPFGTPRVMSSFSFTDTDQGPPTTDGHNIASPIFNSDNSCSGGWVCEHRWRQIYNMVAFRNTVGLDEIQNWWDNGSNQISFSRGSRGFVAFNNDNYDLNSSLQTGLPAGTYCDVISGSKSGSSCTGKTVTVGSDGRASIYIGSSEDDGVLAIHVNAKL

Drosophila melanogaster α-amylase (Drosophila melanogaster), sequence (P08144 other isoform, or with tags, fused parts or gaps): as the sequence (P08144 with tags, fused parts or gaps) above

residual α-amylase activity of DMA after 20 min incubation with the inhibitor (1 to 50 µM) at 25 °C, pH 7.5; value at 10 μM WI-3 [1]: 0.8%
Compound: WI-3 (monomeric form), wheat α-amylase inhibitor from Triticum aestivum seeds (natural protein)

residual α-amylase activity of DMA after 20 min incubation with the inhibitor (1 to 50 µM) at 25 °C, pH 7.5; value at 10 μM WI-1 [1]: 6%
Compound: WI-1 (tetrameric form), wheat α-amylase inhibitor from Triticum aestivum seeds (complex)

Compound: C[C@H]1O[C@H](O[C@H]2[C@H](O)[C@@H](O)[C@@H](O[C@H]3[C@H](O)[C@@H](O)C(O)O[C@@H]3CO)O[C@@H]2CO)[C@H](O)[C@@H](O)[C@@H]1N[C@H]1C=C(CO)[C@@H](O)[C@H](O)[C@H]1O (stereo partly shown) [acarbose]
residual activity (%) [2]: Residual activity of (a) native DMA after treatment with proteinaceous inhibitors and acarbose

residual α-amylase activity of DMA after 20 min incubation with the inhibitor (1 to 50 µM) at 25 °C, pH 7.5; value at the highest concentration (50 μM) of α-AI [1]: 38%
Compound: α-AI, α-amylase inhibitor from seeds of the common bean Phaseolus vulgaris (natural protein)
